{
  "source": "paper PMC7144919",
  "binders": {"B1": {"name": "xtal DNA, 30 bp with three 6-bp A-tracts (dsDNA)", "DNA 1": "CGGCAAAAAACGGCAAAAAACGGCAAAAAA", "DNA 2": "TTTTTTGCCGTTTTTTGCCGTTTTTTGCCG"}, "B2": {"name": "3-base A-tract DNA (dsDNA)", "DNA 1": "CGGCAAACGAAACGGCAAACGAAACGGCAAACGAAA", "DNA 2": "TTTCGTTTGCCGTTTCGTTTGCCGTTTCGTTTGCCG"}, "B3": {"name": "RacA DNA 14 bp (dsDNA)", "DNA 1": "TGACGCCGGCGTCA", "DNA 2": "TGACGCCGGCGTCA"}},
  "key": {"Hfq F42W [1]": {"target": "T1, Hfq F42W (Escherichia coli, UniProt P0A6X3 2-69, F42W)", "experiment": "tryptophan fluorescence quenching"}, "Hfq WT (Table 3) [2]": {"target": "T2, Hfq WT (Table 3) (Escherichia coli, UniProt P0A6X3 2-69)", "experiment": "fluorescence polarization"}, "Sa Hfq": {"target": "Sa Hfq (Staphylococcus aureus, UniProt A0A0H3JV59 1-77)", "experiment": "fluorescence polarization"}, "Hfq(2-69:Q41E)": {"target": "Hfq(2-69:Q41E) (Escherichia coli, UniProt P0A6X3 2-69, Q41E)", "experiment": "fluorescence polarization"}, "Hfq Core [3]": {"target": "T3, Hfq Core (Escherichia coli, UniProt P0A6X3 2-69)", "experiment": "fluorescence polarization"}, "Hfq(2-69:N13A)": {"target": "Hfq(2-69:N13A) (Escherichia coli, UniProt P0A6X3 2-69, N13A)", "experiment": "fluorescence polarization"}, "Hfq(2-69:R16A/R17A)": {"target": "Hfq(2-69:R16A/R17A) (Escherichia coli, UniProt P0A6X3 2-69, R16A;R17A)", "experiment": "fluorescence polarization"}, "Hfq(2-69:Q41A)": {"target": "Hfq(2-69:Q41A) (Escherichia coli, UniProt P0A6X3 2-69, Q41A)", "experiment": "fluorescence polarization"}, "Hfq(2-69:R16A)": {"target": "Hfq(2-69:R16A) (Escherichia coli, UniProt P0A6X3 2-69, R16A)", "experiment": "fluorescence polarization"}, "Hfq full length WT": {"target": "Hfq full length WT (Escherichia coli, UniProt P0A6X3 2-102)", "experiment": "fluorescence polarization"}, "Hfq Core [4]": {"target": "T3, Hfq Core", "experiment": "fluorescence polarization", "remark": "listed apart in the source"}, "Hfq F42W [5]": {"target": "T1, Hfq F42W", "experiment": "tryptophan fluorescence quenching", "remark": "listed apart in the source"}, "Hfq WT (Table 3) [6]": {"target": "T2, Hfq WT (Table 3)", "experiment": "fluorescence polarization", "remark": "listed apart in the source"}},
  "note": "Read-outs that look alike come from different tables or passages of the source.",
  "data": [
    {"binder": "AUUUUUUCGAAUCGAAAGGUUCA (structured_RNA)", "note": "[site A]", "values": [
      {"measurement": "binding result", "setting": "Hfq F42W [1]", "result": "binds"},
      {"measurement": "Kd", "setting": "Hfq WT (Table 3) [2]", "result": "22.7 ± 1.5", "unit": "nM"}
    ]},
    {"binder": "B1", "values": [
      {"measurement": "Kd", "setting": "Sa Hfq", "result": 6.4, "unit": "µM"},
      {"measurement": "Kd", "setting": "Hfq(2-69:Q41E)", "result": "47.1 ± 4.7", "unit": "nM"},
      {"measurement": "Kd", "setting": "Hfq Core [3]", "result": "4.9 ± 2.4", "unit": "nM"},
      {"measurement": "Kd", "setting": "Hfq(2-69:N13A)", "result": "6 ± 2.3", "unit": "nM"},
      {"measurement": "Kd", "setting": "Hfq(2-69:R16A/R17A)", "result": "66.8 ± 10.6", "unit": "nM"},
      {"measurement": "Kd", "setting": "Hfq(2-69:Q41A)", "result": "300 ± 33.6", "unit": "nM"},
      {"measurement": "Kd", "setting": "Hfq(2-69:R16A)", "result": "34.1 ± 7", "unit": "nM"},
      {"measurement": "Kd", "setting": "Hfq full length WT", "result": "175 ± 4.5", "unit": "nM"},
      {"measurement": "Kd", "setting": "Hfq Core [4]", "result": "94 ± 8", "unit": "nM"},
      {"measurement": "binding result", "setting": "Hfq F42W [5]", "result": "binds"}
    ]},
    {"binder": "B2", "values": [
      {"measurement": "Kd", "setting": "Hfq Core [3]", "result": "19.4 ± 6", "unit": "nM"}
    ]},
    {"binder": "AAAAAAAAAAAAAAAAAAAAAAAAAAA (ssRNA)", "note": "[A27]", "values": [
      {"measurement": "binding result", "setting": "Hfq WT (Table 3) [6]", "result": "binds"}
    ]},
    {"binder": "B3", "values": [
      {"measurement": "Kd", "setting": "Hfq Core [3]", "result": "16.2 ± 3.7", "unit": "nM"}
    ]},
    {"binder": "CAUGAUUCUUAUACGUACGACGGAAGAUGAGAAUUAUGGU (structured_RNA)", "note": "[Hairpin 2]", "values": [
      {"measurement": "Kd", "setting": "Hfq WT (Table 3) [2]", "result": "61.5 ± 18.3", "unit": "nM"},
      {"measurement": "binding result", "setting": "Hfq F42W [5]", "result": "binds"}
    ]}
  ]
}
